Legend:
[1] = molecular target: HLA-A*0201 molecule on human T2 cells (human); assay: T2 cells expressing HLA-A*0201, anti-HLA-A2-PE, FACS; conditions: remark: other sources report otherwise
[2] = molecular target: HLA-A*0201 molecule on human T2 cells (human); assay: T2 cells expressing HLA-A*0201, anti-HLA-A2-PE, FACS (Example 9)

B1: EGFR-H (peptide)
peptide: ILDEAYVMA
- Concentration of peptide that induces 20% of HLA-A2 expression [1]: 2.8 µM
- In vitro binding affinity (relative to reference peptide HIV pol 589-597) [1]: 0.2
- mean relative fluorescence intensity at 1.5625 µM peptide (% of HIV peptide) [1]: 12
- mean relative fluorescence intensity at 3.125 µM peptide (% of HIV peptide) [1]: 28.6
- mean relative fluorescence intensity at 6.25 µM peptide (% of HIV peptide) [1]: 33.7
- mean relative fluorescence intensity at 25 µM peptide (% of HIV peptide) [1]: 91.5
- mean relative fluorescence intensity at 50 µM peptide (% of HIV peptide) [1]: 107
- mean relative fluorescence intensity at 100 µM peptide (% of HIV peptide) [1]: 87.4

B2: reference peptide HIV pol 589-597, P04585 1021-1029 (peptide)
peptide: IVGAETFYV
modifications: not checked
- In vitro binding affinity (relative to reference peptide HIV pol 589-597) [2]: 1

From patent publication US20210113678A1
